Results taken from patent US20260242497A1.

How the values were obtained:
human FcRn (human) [1] = biological target: human FcRn (human) (UniProt P55899); test: SPR, Biacore 8K, CM5 chip, antibody immobilised, human FcRn as analyte, pH 6.0
human FcRn (human) [2] = biological target: human FcRn (human) (UniProt P55899); test: SPR, Biacore 8K, CM5 chip, antibody immobilised, human FcRn as analyte, pH 6.0; average of multiple experiments

| Fold Increase (FI) relative to Rituximab (human FcRn (human) [1]) [fold] | Kd (human FcRn (human) [1]) [nM] | Kd (human FcRn (human) [2]) [nM] | Substance |
| --- | --- | --- | --- |
| 10.5 | 202 | – | APG-777 (Apogee) (antibody) |
| – | 2190 | – | AVTX-009 (Avalo) (antibody) |
| 1.1 | 1950 | – | CALY-002 (Calypso/Novartis) (antibody) |
| – | – | 2130 | Rituximab (antibody) |
